According to PMC13269782:
One block for each substance: values may come before it.

Experiments:
Cx32 (human) = Cx32 (human) (UniProt P08034)
[1] = target: Cx36 K238E-E230K-E239K (human) (UniProt Q9UKL4)
[2] = target: Cx36 K238E-E230K-E239K-E241K (human) (UniProt Q9UKL4)
Cx31.3, human (human) = Cx31.3, human (human) (UniProt Q8NFK1)
[3] = target: Cx36 E230K-E239K-E241K (human) (UniProt Q9UKL4)
Cx36 K238E (human) = Cx36 K238E (human) (UniProt Q9UKL4)
Cx36 E230K-E239K (human) = Cx36 E230K-E239K (human) (UniProt Q9UKL4)
Cx36 E230K (human) = Cx36 E230K (human) (UniProt Q9UKL4)
Cx36 K238E-E230K (human) = Cx36 K238E-E230K (human) (UniProt Q9UKL4)
Cx45, human (human) = Cx45, human (human) (UniProt P36383)
Cx30, human (human) = Cx30, human (human) (UniProt O95452)
Cx47, human (human) = target: T1, Cx47, human (human) (UniProt Q5T442)
T1 sequence: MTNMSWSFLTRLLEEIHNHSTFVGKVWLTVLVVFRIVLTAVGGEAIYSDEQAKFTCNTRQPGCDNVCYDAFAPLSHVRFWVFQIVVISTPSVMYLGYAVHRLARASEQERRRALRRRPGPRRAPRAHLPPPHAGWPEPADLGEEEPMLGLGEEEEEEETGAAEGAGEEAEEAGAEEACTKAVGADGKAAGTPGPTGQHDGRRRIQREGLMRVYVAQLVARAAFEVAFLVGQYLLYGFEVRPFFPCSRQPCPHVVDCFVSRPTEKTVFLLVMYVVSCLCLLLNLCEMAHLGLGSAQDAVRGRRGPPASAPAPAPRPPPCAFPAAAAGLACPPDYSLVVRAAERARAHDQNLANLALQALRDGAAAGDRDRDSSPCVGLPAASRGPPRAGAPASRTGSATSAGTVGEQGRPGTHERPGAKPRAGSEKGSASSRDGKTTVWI

Cx26, human (human) = Cx26, human (human) (UniProt P29033)
Cx43, human (human) = Cx43, human (human) (UniProt P17302)
[4] = target: Connexin36 (Cx36), human, wildtype (human) (UniProt Q9UKL4)
Cx36 K238A (human) = Cx36 K238A (human) (UniProt Q9UKL4)
Cx36 E239K (human) = Cx36 E239K (human) (UniProt Q9UKL4)
Cx36 K238Q (human) = Cx36 K238Q (human) (UniProt Q9UKL4)
Cx36 K238E-E239K (human) = Cx36 K238E-E239K (human) (UniProt Q9UKL4)
Cx36 E241A (human) = Cx36 E241A (human) (UniProt Q9UKL4)
Cx36 E241K (human) = Cx36 E241K (human) (UniProt Q9UKL4)

Chain of Connexin36 (Cx36), human, wildtype (Q9UKL4 whole entry): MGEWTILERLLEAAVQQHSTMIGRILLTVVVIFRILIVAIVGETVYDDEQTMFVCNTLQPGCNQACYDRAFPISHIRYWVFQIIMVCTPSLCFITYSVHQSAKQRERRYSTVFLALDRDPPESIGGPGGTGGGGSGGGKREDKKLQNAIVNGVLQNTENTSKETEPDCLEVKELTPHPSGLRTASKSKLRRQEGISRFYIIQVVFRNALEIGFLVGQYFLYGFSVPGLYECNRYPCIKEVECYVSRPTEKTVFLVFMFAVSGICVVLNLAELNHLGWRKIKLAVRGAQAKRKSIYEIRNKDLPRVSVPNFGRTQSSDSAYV
Chain of Cx31.3, human (human) (Q8NFK1 whole entry): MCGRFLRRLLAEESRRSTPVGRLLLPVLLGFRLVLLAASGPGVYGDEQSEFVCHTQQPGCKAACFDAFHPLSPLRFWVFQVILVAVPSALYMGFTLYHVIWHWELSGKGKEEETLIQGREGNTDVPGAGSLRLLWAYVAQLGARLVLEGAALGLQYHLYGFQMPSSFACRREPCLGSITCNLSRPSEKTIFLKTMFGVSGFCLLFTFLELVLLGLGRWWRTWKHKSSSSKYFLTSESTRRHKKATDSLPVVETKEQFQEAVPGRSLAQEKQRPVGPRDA
Chain of Cx31.3, human (Q8NFK1 whole entry): as above
Chain of Cx32 (P08034 whole entry): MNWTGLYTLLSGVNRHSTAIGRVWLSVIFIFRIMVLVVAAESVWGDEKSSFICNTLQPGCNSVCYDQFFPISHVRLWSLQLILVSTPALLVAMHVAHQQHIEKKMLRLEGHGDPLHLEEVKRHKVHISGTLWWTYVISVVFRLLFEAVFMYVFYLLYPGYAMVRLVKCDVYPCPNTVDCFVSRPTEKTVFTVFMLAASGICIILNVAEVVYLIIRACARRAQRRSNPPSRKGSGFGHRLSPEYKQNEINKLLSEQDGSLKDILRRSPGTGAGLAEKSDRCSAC
Chain of Cx32 (human) (P08034 whole entry): as above
Chain of Cx45, human (human) (P36383 whole entry): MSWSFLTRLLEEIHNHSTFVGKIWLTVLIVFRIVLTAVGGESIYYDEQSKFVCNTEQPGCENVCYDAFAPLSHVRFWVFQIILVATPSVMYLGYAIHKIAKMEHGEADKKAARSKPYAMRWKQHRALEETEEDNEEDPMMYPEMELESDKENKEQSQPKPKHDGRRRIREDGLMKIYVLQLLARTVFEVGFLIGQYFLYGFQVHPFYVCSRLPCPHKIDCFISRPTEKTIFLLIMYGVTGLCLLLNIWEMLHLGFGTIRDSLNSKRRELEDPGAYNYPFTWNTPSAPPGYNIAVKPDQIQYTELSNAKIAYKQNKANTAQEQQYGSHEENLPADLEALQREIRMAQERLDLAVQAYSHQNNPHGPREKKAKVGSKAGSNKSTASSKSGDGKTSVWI
Chain of Cx45, human (P36383 whole entry): as above
Chain of Cx30, human (O95452 whole entry): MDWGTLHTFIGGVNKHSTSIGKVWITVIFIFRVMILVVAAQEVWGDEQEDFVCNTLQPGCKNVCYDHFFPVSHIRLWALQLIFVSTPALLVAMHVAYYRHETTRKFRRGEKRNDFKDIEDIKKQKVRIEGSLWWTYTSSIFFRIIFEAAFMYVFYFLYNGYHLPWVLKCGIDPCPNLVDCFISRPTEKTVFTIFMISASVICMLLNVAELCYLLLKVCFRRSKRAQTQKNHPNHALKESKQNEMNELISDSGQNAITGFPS
Chain of Cx30, human (human) (O95452 whole entry): as above
Chain of Cx43, human (human) (P17302 whole entry): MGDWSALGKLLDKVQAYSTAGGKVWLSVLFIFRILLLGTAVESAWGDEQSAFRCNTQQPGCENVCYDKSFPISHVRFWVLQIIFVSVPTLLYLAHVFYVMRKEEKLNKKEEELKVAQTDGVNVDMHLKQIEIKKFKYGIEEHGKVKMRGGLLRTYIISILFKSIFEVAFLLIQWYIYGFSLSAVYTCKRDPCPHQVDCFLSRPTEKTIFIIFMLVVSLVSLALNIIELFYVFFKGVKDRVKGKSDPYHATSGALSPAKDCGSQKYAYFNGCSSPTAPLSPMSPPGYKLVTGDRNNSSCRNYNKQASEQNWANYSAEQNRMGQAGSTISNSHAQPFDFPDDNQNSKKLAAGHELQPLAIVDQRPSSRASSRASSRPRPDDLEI
Chain of Cx43, human (P17302 whole entry): as above

Substance: Cx36 K238E-E230K-E239K (from UniProt Q9UKL4 1-321) (natural protein)
- median junctional conductance (Gj), dual whole-cell patch clamp of DKO HEK293 cell pairs, homotypic; IQR 0.08–0.14; 16 pairs [1]: 0.12 nS

Substance: Cx36 K238E-E230K-E239K-E241K (from UniProt Q9UKL4 1-321) (natural protein)
- median junctional conductance (Gj), dual whole-cell patch clamp of DKO HEK293 cell pairs, homotypic; IQR 0–0; 16 pairs [2]: 0 nS

Substance: Cx36 E230K-E239K-E241K (from UniProt Q9UKL4 1-321) (natural protein)
- median junctional conductance (Gj), dual whole-cell patch clamp of DKO HEK293 cell pairs, homotypic; IQR 0–0; 12 pairs [3]: 0 nS

Substance: Cx45, human (from UniProt P36383 1-396) (natural protein)
- median junctional conductance (Gj), dual whole-cell patch clamp of DKO HEK293 cell pairs, homotypic; IQR 0.5–19.6; 29 pairs (Cx45, human (human)): 6.8 nS

Substance: Cx36 E239K (from UniProt Q9UKL4 1-321) (natural protein)
- median junctional conductance (Gj), dual whole-cell patch clamp of DKO HEK293 cell pairs, heterotypic; IQR 0.08–0.2; 23 pairs (Cx36 K238E (human)): 0.11 nS
- median junctional conductance (Gj), dual whole-cell patch clamp of DKO HEK293 cell pairs, homotypic; IQR 0.04–0.31; 30 pairs (Cx36 E239K (human)): 0.12 nS
- median junctional conductance (Gj), dual whole-cell patch clamp of DKO HEK293 cell pairs, heterotypic; IQR 0–0.12; 21 pairs (Cx36 E230K-E239K (human)): 0.05 nS

Substance: Cx36 E241A (from UniProt Q9UKL4 1-321) (natural protein)
- median junctional conductance (Gj), dual whole-cell patch clamp of DKO HEK293 cell pairs, homotypic; IQR 0.03–0.19; 18 pairs (Cx36 E241A (human)): 0.09 nS
- median junctional conductance (Gj), dual whole-cell patch clamp of DKO HEK293 cell pairs, heterotypic; IQR 0–0; 16 pairs (Cx36 E230K-E239K (human)): 0 nS

Substance: Cx36 K238E (from UniProt Q9UKL4 1-321) (natural protein)
- median junctional conductance (Gj), dual whole-cell patch clamp of DKO HEK293 cell pairs, heterotypic; IQR 0–0; 19 pairs (Cx36 E241K (human)): 0 nS
- median junctional conductance (Gj), dual whole-cell patch clamp of DKO HEK293 cell pairs, homotypic; IQR 0–0; 19 pairs (Cx36 K238E (human)): 0 nS
- median junctional conductance (Gj), dual whole-cell patch clamp of DKO HEK293 cell pairs, heterotypic; IQR 0–0; 15 pairs (Cx36 K238E-E230K (human)): 0 nS
- median junctional conductance (Gj), dual whole-cell patch clamp of DKO HEK293 cell pairs, heterotypic; IQR 0–0; 18 pairs [3]: 0 nS
- median junctional conductance (Gj), dual whole-cell patch clamp of DKO HEK293 cell pairs, heterotypic; IQR 0–0; 15 pairs (Cx36 K238E-E239K (human)): 0 nS

Substance: Cx36 E241K (from UniProt Q9UKL4 1-321) (natural protein)
- median junctional conductance (Gj), dual whole-cell patch clamp of DKO HEK293 cell pairs, homotypic; IQR 0–0; 25 pairs (Cx36 E241K (human)): 0 nS

Substance: Cx43, human (from UniProt P17302 1-382) (natural protein)
- median junctional conductance (Gj), dual whole-cell patch clamp of DKO HEK293 cell pairs, homotypic; IQR 0–9.93; 17 pairs (Cx43, human (human)): 0.46 nS

Substance: Cx30, human (from UniProt O95452 1-261) (natural protein)
- median junctional conductance (Gj), dual whole-cell patch clamp of DKO HEK293 cell pairs, homotypic; IQR 0.43–21.28; 16 pairs (Cx30, human (human)): 6.55 nS

Substance: Cx36 K238E-E239K (from UniProt Q9UKL4 1-321) (natural protein)
- median junctional conductance (Gj), dual whole-cell patch clamp of DKO HEK293 cell pairs, homotypic; IQR 0–0; 15 pairs (Cx36 K238E-E239K (human)): 0 nS

Further lines, results first:

- median junctional conductance (Gj), dual whole-cell patch clamp of DKO HEK293 cell pairs, homotypic; IQR 0–16.23; 17 pairs (Cx32 (human)): 0.85 nS
Substance: Cx32 (from UniProt P08034 1-283) (natural protein)

- median junctional conductance (Gj), dual whole-cell patch clamp of DKO HEK293 cell pairs, homotypic; IQR 0–0; 17 pairs (Cx31.3, human (human)): 0 nS
Substance: Cx31.3, human (from UniProt Q8NFK1 1-279) (natural protein)

- median junctional conductance (Gj), dual whole-cell patch clamp of DKO HEK293 cell pairs, heterotypic; IQR 0.05–0.22; 20 pairs (Cx36 K238E (human)): 0.1 nS
- median junctional conductance (Gj), dual whole-cell patch clamp of DKO HEK293 cell pairs, heterotypic; IQR 0–0; 20 pairs (Cx36 E230K-E239K (human)): 0 nS
- median junctional conductance (Gj), dual whole-cell patch clamp of DKO HEK293 cell pairs, homotypic; IQR 0–0.14; 28 pairs (Cx36 E230K (human)): 0.01 nS
Substance: Cx36 E230K (from UniProt Q9UKL4 1-321) (natural protein)

- median junctional conductance (Gj), dual whole-cell patch clamp of DKO HEK293 cell pairs, heterotypic; IQR 0–0.18; 15 pairs (Cx36 K238E-E230K (human)): 0.09 nS
- median junctional conductance (Gj), dual whole-cell patch clamp of DKO HEK293 cell pairs, homotypic; IQR 0–0; 20 pairs (Cx36 E230K-E239K (human)): 0 nS
Substance: Cx36 E230K-E239K (from UniProt Q9UKL4 1-321) (natural protein)

- median junctional conductance (Gj), dual whole-cell patch clamp of DKO HEK293 cell pairs, heterotypic; IQR 0–0; 15 pairs (Cx30, human (human)): 0 nS
- median junctional conductance (Gj), dual whole-cell patch clamp of DKO HEK293 cell pairs, heterotypic; IQR 0–0; 21 pairs (Cx47, human (human)): 0 nS
- median junctional conductance (Gj), dual whole-cell patch clamp of DKO HEK293 cell pairs, heterotypic; IQR 0–0; 15 pairs (Cx31.3, human (human)): 0 nS
- median junctional conductance (Gj), dual whole-cell patch clamp of DKO HEK293 cell pairs, heterotypic; IQR 0–0; 19 pairs (Cx26, human (human)): 0 nS
- median junctional conductance (Gj), dual whole-cell patch clamp of DKO HEK293 cell pairs, heterotypic; IQR 0–0; 25 pairs (Cx43, human (human)): 0 nS
- median junctional conductance (Gj), dual whole-cell patch clamp of DKO HEK293 cell pairs, heterotypic; IQR 0–0; 19 pairs (Cx32 (human)): 0 nS
- median junctional conductance (Gj), dual whole-cell patch clamp of DKO HEK293 cell pairs, heterotypic; IQR 0–0; 26 pairs (Cx45, human (human)): 0 nS
- median junctional conductance (Gj), dual whole-cell patch clamp of DKO HEK293 cell pairs, homotypic; IQR 0.02–0.19; 38 pairs [4]: 0.1 nS
- median junctional conductance (Gj), dual whole-cell patch clamp of DKO HEK293 cell pairs, heterotypic; IQR 0.05–0.24; 17 pairs (Cx36 K238A (human)): 0.16 nS
- median junctional conductance (Gj), dual whole-cell patch clamp of DKO HEK293 cell pairs, heterotypic; IQR 0.08–0.19; 18 pairs (Cx36 E239K (human)): 0.13 nS
- median junctional conductance (Gj), dual whole-cell patch clamp of DKO HEK293 cell pairs, heterotypic; IQR 0–0; 16 pairs (Cx36 K238E-E230K (human)): 0 nS
- median junctional conductance (Gj), dual whole-cell patch clamp of DKO HEK293 cell pairs, heterotypic; IQR 0.01–0.31; 16 pairs (Cx36 K238Q (human)): 0.13 nS
- median junctional conductance (Gj), dual whole-cell patch clamp of DKO HEK293 cell pairs, heterotypic; IQR 0–0.10; 15 pairs (Cx36 K238E-E239K (human)): 0.06 nS
- median junctional conductance (Gj), dual whole-cell patch clamp of DKO HEK293 cell pairs, heterotypic; IQR 0.11–0.41; 19 pairs (Cx36 E230K-E239K (human)): 0.22 nS
- median junctional conductance (Gj), dual whole-cell patch clamp of DKO HEK293 cell pairs, heterotypic; IQR 0.04–0.22; 15 pairs (Cx36 E230K (human)): 0.14 nS
Substance: Connexin36 (Cx36), human, wildtype (from UniProt Q9UKL4 1-321) (natural protein)

- median junctional conductance (Gj), dual whole-cell patch clamp of DKO HEK293 cell pairs, homotypic; IQR 0–0; 15 pairs (Cx36 K238E-E230K (human)): 0 nS
Substance: Cx36 K238E-E230K (from UniProt Q9UKL4 1-321) (natural protein)

- median junctional conductance (Gj), dual whole-cell patch clamp of DKO HEK293 cell pairs, homotypic; IQR 0–0; 16 pairs (Cx36 K238Q (human)): 0 nS
Substance: Cx36 K238Q (from UniProt Q9UKL4 1-321) (natural protein)

- median junctional conductance (Gj), dual whole-cell patch clamp of DKO HEK293 cell pairs, homotypic; IQR 0–0; 23 pairs (Cx36 K238A (human)): 0 nS
Substance: Cx36 K238A (from UniProt Q9UKL4 1-321) (natural protein)
